Test system: MS2 coat protein
Test: apparent KD of MS2 coat protein; designed switch direction (-1 OFF switch, 1 ON switch): -1; higher = weaker reporter binding
Method in brief: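 On Illumina chips, designed RNA switches with common flanks were made by stalled E. coli RNA polymerase. Titrations with SNAP-549-labelled MS2 coat protein, doubling from 0.7 or 1.5 nM to 3 µM, were done with no input, with 200 uM small-molecule ligand, or with an oligonucleotide input. Apparent KD is the median per design over clusters, from curve fits of normalised cluster fluorescence.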

[1] = Eterna round: R95, input ligand: microRNA oligo, concentration not stated
[2] = Eterna round: R95, input ligand: FMN 200 uM
[3] = Eterna round: R95, input ligand: none
[4] = input ligand: microRNA oligo, concentration not stated

UCGUGUGCGUAGGAUAUCGGUAUGAAGGGAGAAUGAGAAGGGCGGACAUGAGGAUCACCCAUGUGUGCCGGAAA [EX6 B.4] (Eterna round: R97, puzzle: Exclusion 6)
apparent KD of MS2 coat protein (input ligand: FMN 200 uM): 0.0433 µM
apparent KD of MS2 coat protein (input ligand: none): 0.018 µM

GCAGGAUAAGUGAGGAUAUACCUAUGGAUACAUAGGUAGAAGGUACAUGAGGAUCACCCAUGUUCCUUACCUGC [Fiskers BMX 4 - 65] (puzzle: Brourd's mod of Exclusion 4)
apparent KD of MS2 coat protein [1]: 0.0117 µM

GUAGAGUCAGGAUAUACGAGAUCGAAAGAUCGGCGAUCCCUACAUGAGGAUCACCCAUGUAGAAGGGACUCUAC [Eli x2 4.12] (Eterna round: R97, puzzle: Exclusion 2)
apparent KD of MS2 coat protein (input ligand: FMN 200 uM): 0.0287 µM
apparent KD of MS2 coat protein (input ligand: none): 0.0149 µM

CCGGAAAGGAAGGAUAUGCUAGACGAAAGUCUAGCAGAAGGUCCUACAUGAGGAUCACCCAUGUGGUCCUCCGG [Eli x6 4.06] (Eterna round: R97, puzzle: Exclusion 6)
apparent KD of MS2 coat protein (input ligand: FMN 200 uM): 0.298 µM
apparent KD of MS2 coat protein (input ligand: none): 1.47 µM

AGUACUAACACGAAAGUGUUAGUACAAUAAGCUUGUGAAACAUGAGGAUCACCCAUGUCCUCAUAAGCUCGUCUUGU [salish99_TOv2_r3_009] (puzzle: Sensor v3, turn-off variant 2)
apparent KD of MS2 coat protein [2]: 0.0152 µM
apparent KD of MS2 coat protein [1]: 0.353 µM
apparent KD of MS2 coat protein [3]: 0.0137 µM

AAAAAGCGAGGAUAUACAGGAAAAGAAAAGAAAAGAAAAGCACAUGAGGAUCACCCAUGUAGAAGGCGCGAAAA [Exclusion 2 #3] (puzzle: Exclusion 2)
apparent KD of MS2 coat protein [2]: 0.0261 µM
apparent KD of MS2 coat protein [1]: 0.0247 µM
apparent KD of MS2 coat protein [3]: 0.0208 µM

AUUUAAUUUAGCGAGAUCACAUGAGGAUCACCCAUGUAUAUAUAGGAUAUCAGCUCGAUUAGAGCUGAGAAGGAUAUAUACCGC [ExNG3/7-A1] (Eterna round: R96, puzzle: Exclusion NG 3)
apparent KD of MS2 coat protein (input ligand: FMN 200 uM): 0.17 µM
apparent KD of MS2 coat protein [4]: 0.0987 µM
apparent KD of MS2 coat protein (input ligand: none): 0.082 µM

CAGUACUGAGGAUAUACAUGAGGAUCACCCAUGUGUUCCUGCUAGGAAACUAGCAAAAGUAGAAGGCAGUACUG [salish99_ex3_r3_098x] (Eterna round: R96, puzzle: Exclusion 3)
apparent KD of MS2 coat protein (input ligand: FMN 200 uM): 0.516 µM
apparent KD of MS2 coat protein [4]: 0.0261 µM
apparent KD of MS2 coat protein (input ligand: none): 0.0275 µM

GUCUGGUUAGGAUAUACAGUGUCCACGAGUUAGUUGCCCUAACAUGAGGAUCACCCAUGUAGAAGGAGCGAGAA [Erisared] (Eterna round: R96, puzzle: Exclusion 2)
apparent KD of MS2 coat protein (input ligand: FMN 200 uM): 0.0227 µM
apparent KD of MS2 coat protein [4]: 0.0133 µM
apparent KD of MS2 coat protein (input ligand: none): 0.0166 µM

CUAAUUAGAGGAUAUACAUGAGGAUCACCCAUGUUCUUCAAGUCGCCAACGGCAUAACGUAGAAGGCUGAGUGG [Eternabot (L1) Solution 32] (Eterna round: R97, puzzle: Exclusion 3)
apparent KD of MS2 coat protein (input ligand: FMN 200 uM): 0.0264 µM
apparent KD of MS2 coat protein (input ligand: none): 0.0258 µM

UGAGUGGUGCGAGGAUAUACAUGAGGAUCACCCAUGUAAACGUGUGAGGCUUUGCCUCACACGAUGUAGAAGGCGCACUACUCU [Mat - Exclusion NG 2 - Mod of JL - D13] (Eterna round: R96, puzzle: Exclusion NG 2)
apparent KD of MS2 coat protein (input ligand: FMN 200 uM): 0.0156 µM
apparent KD of MS2 coat protein [4]: 0.00936 µM
apparent KD of MS2 coat protein (input ligand: none): 0.0136 µM

GGAUCACAUGUCAGGAUAUGCAGGUCCUUGGAUCUGCAGAAGGGACAUGAGGAUCACCCAUGUCAUGAAGAUCC [Mat - Exclusion 4 - Eli Mod - D51] (Eterna round: R97, puzzle: Brourd's mod of Exclusion 4)
apparent KD of MS2 coat protein (input ligand: FMN 200 uM): 0.945 µM
apparent KD of MS2 coat protein (input ligand: none): 0.145 µM

ACAUUGGUAGUGAGGAUAUCGGUGAGAUAGAAUGACGAGAAGGCACAUGAGGAUCACCCAUGUAAGAUUGGGCA [JR_BMEx4_Sub042] (Eterna round: R97, puzzle: Brourd's mod of Exclusion 4)
apparent KD of MS2 coat protein (input ligand: FMN 200 uM): 0.286 µM
apparent KD of MS2 coat protein (input ligand: none): 0.251 µM

UUAGUAUAGCAAGGAUAUGUUUAUGUAUAGUUGCCUCUUACAUGAGGAUCACCCAUGUUUAACUUACAGAAGGUGCAAUGAUUU [JR_ExcNG2_Sub033] (Eterna round: R96, puzzle: Exclusion NG 2)
apparent KD of MS2 coat protein (input ligand: FMN 200 uM): 0.279 µM
apparent KD of MS2 coat protein [4]: 0.108 µM
apparent KD of MS2 coat protein (input ligand: none): 0.137 µM

GCUACCAGAGUGAGGAUAUCGGAUGCGCAAGCACACGAGAAGGCACAUGAGGAUCACCCAUGUAUGGUAGCCGU [eternacac ex4r4 #9] (Eterna round: R97, puzzle: Brourd's mod of Exclusion 4)
apparent KD of MS2 coat protein (input ligand: FMN 200 uM): 0.0132 µM
apparent KD of MS2 coat protein (input ligand: none): 0.0391 µM

AGCUGUGGCCGAGGAUAUCUGAAAACUCAAACCGAAAUAUAAUCGGACAUGAGGAUCACCCAUGUAGAGAAGGCGGUCUCAGCA [Eli eng2 - 062] (Eterna round: R96, puzzle: Exclusion NG 2)
apparent KD of MS2 coat protein [4]: 0.0457 µM

GCAAGUUUUUUGUUUUUUAACAUGAGGAUCACCCAUGUAUUUUUAUAGUAUGUGUGAAUAAGAUCUCGUGGUCUUAG [JR_SV3TOV1_Sub100] (puzzle: Sensor v3, turn-off variant 1)
apparent KD of MS2 coat protein [2]: 0.0733 µM
apparent KD of MS2 coat protein [1]: 0.203 µM
apparent KD of MS2 coat protein [3]: 0.0772 µM

GAUAGAGAGCAGGAUAUCUUAGAUAUGUAAUAUAGAGAAGGGCUCACAUGAGGAUCACCCAUGUGGUCCUAGAU [JL Dibiri mod 14] (puzzle: Exclusion 6)
apparent KD of MS2 coat protein [2]: 0.094 µM
apparent KD of MS2 coat protein [1]: 0.0159 µM
apparent KD of MS2 coat protein [3]: 0.0161 µM

UUUGUCUGUGUGAGGAUAUACUUUGUUUGGUCGUUGUAGAAGGCACAUGAGGAUCACCCAUGUAGUUUGUUGUG [JR_BME4_Sub014] (puzzle: Brourd's mod of Exclusion 4)
apparent KD of MS2 coat protein [1]: 0.0203 µM

CUAGCGAAUGUAGGAUAUCGGACUGUUUCAGUCUGAGAAGGACAUGAGGAUCACCCAUGUAUAGCUACGUGAGUAGCACGCUAG [JL ENG1 3.90] (Eterna round: R96, puzzle: Exclusion NG 1)
apparent KD of MS2 coat protein (input ligand: FMN 200 uM): 0.0276 µM
apparent KD of MS2 coat protein [4]: 0.0161 µM
apparent KD of MS2 coat protein (input ligand: none): 0.0217 µM

CCGAAACAUGAGGAUCACCCAUGUCAGGAUAUUCCAAAAUCGUCGAAAGACGAUAACAGAAGAAGGGACAUCGG [Fiskxlusion 1 - Jieux - Exclusion 1] (Eterna round: R97, puzzle: Exclusion 1)
apparent KD of MS2 coat protein (input ligand: FMN 200 uM): 0.0937 µM
apparent KD of MS2 coat protein (input ligand: none): 0.058 µM

UCCGGACAUGAGGAUCACCCAUGUCAGGAUAUACCCGAGGCAGCAAACACGCUAGCCAGUAGAAGGGACAUGGU [Geenma] (Eterna round: R97, puzzle: Exclusion 1)
apparent KD of MS2 coat protein (input ligand: FMN 200 uM): 0.0183 µM
apparent KD of MS2 coat protein (input ligand: none): 0.0207 µM

UUUUUAGAUGAAGGAUAUACUUAACAUGAGGAUCACCCAUGUGGUGUUGUGAGUGAGUGAGUUUAGUAGAAGGUCAAUGAUUUU [JMF's solution 66] (Eterna round: R96, puzzle: Exclusion NG 2)
apparent KD of MS2 coat protein (input ligand: FMN 200 uM): 0.937 µM
apparent KD of MS2 coat protein [4]: 0.246 µM
apparent KD of MS2 coat protein (input ligand: none): 0.377 µM

AGCCGGUCGUGAGGAUAUUACAUGAGGAUCACCCAUGUCGACGGGCUACGGGCGGUCGGCUCGUGUGAGAAGGCGCGCCCGGAA [Tibibiza] (Eterna round: R96, puzzle: Exclusion NG 2)
apparent KD of MS2 coat protein (input ligand: FMN 200 uM): 0.0173 µM
apparent KD of MS2 coat protein [4]: 0.00833 µM
apparent KD of MS2 coat protein (input ligand: none): 0.0176 µM

UACAUGAGGAUCACCCAUGUUUUGUCGUGUAUGGUAUUUAUCUAGGAUAUCAUUCUAUUUAGUUAUGAGAAGGAGAAUAUUAAU [JMF's solution 84] (Eterna round: R96, puzzle: Exclusion NG 3)
apparent KD of MS2 coat protein [4]: 0.0211 µM

AGCUGUGGCCGAGGAUAUUCAGCCUUAAAUACCGACGUAUAGUCGGACAUGAGGAUCACCCAUGUGGAGAAGGCGGUCUCAGCA [Eli eng2 - 046] (Eterna round: R96, puzzle: Exclusion NG 2)
apparent KD of MS2 coat protein (input ligand: FMN 200 uM): 0.0764 µM
apparent KD of MS2 coat protein [4]: 0.0345 µM
apparent KD of MS2 coat protein (input ligand: none): 0.0484 µM

UACAUGAGGAUCACCCAUGUUUUGUCGUGUAUGGUAUUUAUCUAGGAUAUCAAUUGAUUUAUUUAUGAGAAGGAGAAUAUUAAU [JMF's solution 15] (Eterna round: R96, puzzle: Exclusion NG 3)
apparent KD of MS2 coat protein (input ligand: FMN 200 uM): 0.0425 µM
apparent KD of MS2 coat protein [4]: 0.0268 µM
apparent KD of MS2 coat protein (input ligand: none): 0.0395 µM

AAUACCCGAGGAUAUCUAAUUCGGCACAUGAGGAUCACCCAUGUGAUCUGACCUAGCCGAGGAGAAGGCGGGUCAG [Errizabe] (puzzle: Exclusion 5)
apparent KD of MS2 coat protein [2]: 0.0258 µM
apparent KD of MS2 coat protein [1]: 0.0129 µM
apparent KD of MS2 coat protein [3]: 0.0121 µM

GGCAAUAACGAGGAUAUCGUAUGGGAAACCAUACGAGAAGGUGUAACAUGAGGAUCACCCAUGUUCCUCAAGCC [Mat - Exclusion 6 - Eli Mod - D66] (puzzle: Exclusion 6)
apparent KD of MS2 coat protein [2]: 0.0353 µM
apparent KD of MS2 coat protein [1]: 0.0346 µM
apparent KD of MS2 coat protein [3]: 0.04 µM

UCGAUGUGAGGAUAUAUAUGCAGUAGUCCUUAUGUUUUAUAACUUGAGGAUCACCCAAGUAGAAGGCGCGACGU [JR_Ex2_Sub060] (Eterna round: R97, puzzle: Exclusion 2)
apparent KD of MS2 coat protein (input ligand: FMN 200 uM): 0.0492 µM
apparent KD of MS2 coat protein (input ligand: none): 0.0395 µM
